Values of other authors, collected in publication PMC2488365.

Molecular target: penton base (Human adenovirus 2) (UniProt P03276)
Chain of UniProt P03276 (P03276 whole entry): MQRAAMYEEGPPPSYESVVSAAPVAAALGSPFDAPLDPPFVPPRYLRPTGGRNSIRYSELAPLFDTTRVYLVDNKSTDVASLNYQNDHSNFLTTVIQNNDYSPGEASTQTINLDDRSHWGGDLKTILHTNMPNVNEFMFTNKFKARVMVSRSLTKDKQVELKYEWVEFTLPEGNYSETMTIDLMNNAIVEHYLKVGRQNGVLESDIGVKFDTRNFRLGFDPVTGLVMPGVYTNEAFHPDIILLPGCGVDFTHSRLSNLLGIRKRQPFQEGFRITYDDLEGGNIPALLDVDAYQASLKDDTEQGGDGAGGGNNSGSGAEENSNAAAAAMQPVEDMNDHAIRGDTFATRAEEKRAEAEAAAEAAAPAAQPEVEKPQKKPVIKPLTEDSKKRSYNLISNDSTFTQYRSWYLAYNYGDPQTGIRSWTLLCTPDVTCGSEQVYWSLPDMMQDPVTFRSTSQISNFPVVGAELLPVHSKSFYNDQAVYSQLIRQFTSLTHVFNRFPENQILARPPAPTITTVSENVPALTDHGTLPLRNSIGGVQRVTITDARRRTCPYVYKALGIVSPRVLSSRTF

fiber (from UniProt P03275)
Kd: 200 nM
